Results published in the supplement of paper PMC6755084.

B1: F1*; the commonest letter at each place (parent)
chain: GAGACCGCAACTGAAAAGTTGTTATCACTTGTCGTAAGACACTTTGGATGGGTTGAAGTTCTGCACGTAGAAGCAAAAGGC

Variants of: B1
Assay: fraction ligated after 30 min (ligated reads / total reads); higher = more ligase activity
Conditions: with F1*sub RNA substrate (template-directed ligation), 42 °C
Procedure, shortened: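 Templates from an oligo pool were PCR-amplified, transcribed with T7 and gel-purified to give the ribozyme variants. Ligated and unligated products were separated on gel, reverse transcribed using barcoded primers, and read on a MiSeq. A quality filter of ≥20 was applied to core bases. Fraction ligated was taken as ligated reads as a share of all reads per variant.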

Point of comparison: C26A G47C, fraction ligated 0.0466. Against it:
- A27G A36C — higher, 0.822
- T30A C33G — higher, 0.84
- A39C T44G — higher, 0.801
- T23A T43A — higher, 0.803
- C33G G46A — higher, 0.811
- C33G A39T — higher, 0.851
- T43C G50A — higher, 0.187
- A27C T29A — higher, 0.818
- C28G T45A — higher, 0.558
- T30C G31C T32C C33G G38C A39G C40G A41G — higher, 0.892
- C33A C42G — higher, 0.84
- T25C C28A — higher, 0.684
- A39G A48G — higher, 0.814
- C33A G46C — higher, 0.797
- T30C G50T — higher, 0.452
- G31C A57G — higher, 0.807
- A41T G46A — higher, 0.804
- G31T A41C — higher, 0.586
- T29G A37C — higher, 0.814
- C26A G38A — higher, 0.774
- C26A G38T — higher, 0.793
- T32A T43C — higher, 0.812
- A37C — higher, 0.849
- A24T C40G — higher, 0.582
- A24T C40T — higher, 0.769
- A24T C40A — higher, 0.34
- T29C C40A — higher, 0.791
- A27T A48T — higher, 0.787
- T45C A57G — higher, 0.812
- G38T C40A — higher, 0.836
- A24G A27C — higher, 0.776
- A41G C42A — higher, 0.85
- A41G C42T — higher, 0.83
- C26T T29C — higher, 0.848
- T30C G38T — higher, 0.795
- T30G C33T — higher, 0.867
- T32A G55A — higher, 0.817
- T32G A39T — higher, 0.862
- C33A G55A — higher, 0.84
- A27G T32G — higher, 0.827
- C40T T44A — higher, 0.831
- A37G C40A — higher, 0.807
- A36G G46T — higher, 0.825
- C26G T35A — higher, 0.79
- A37G G50T — higher, 0.785
- C28G T29C — higher, 0.814
- G31A A36G — higher, 0.595
- T29C T35C — higher, 0.801
- A36C G50C — higher, 0.454
- G31T A56C — higher, 0.221
- G55C A57C — higher, 0.412
- C28T T35G — higher, 0.785
- A24T A27G — higher, 0.748
- C28T G31T — higher, 0.826
- T30G G55T — higher, 0.819
- T30G G55A — higher, 0.846
- G38C A41T — higher, 0.785
- A48C G55C — higher, 0.16
- T35A C40T — higher, 0.834
- A37C A56T — higher, 0.804
- T35A A56T — higher, 0.82
- C26G G38T — higher, 0.0811
- A41G G47A — higher, 0.734
- A36G G55C — higher, 0.773
- C28T A39C — higher, 0.795
- T35G G55A — higher, 0.819
- T35A G50T — higher, 0.792
- T25A C33T — higher, 0.472
- A41C A48T — higher, 0.736
- C42G A48G — higher, 0.821
- C26G G47A — higher, 0.8
- A37G T49G — higher, 0.807
- T32A G47C — higher, 0.102
- G34C A41T — higher, 0.778
- G34C A41C — higher, 0.808
- T29A A37T — higher, 0.848
- A24C C42G — higher, 0.775
- C40G G46T — higher, 0.793
- A27T C40T — higher, 0.847
- A36T T49G — higher, 0.797
- A36T T49C — higher, 0.742
- C28T T32G — higher, 0.8
- C28T T32A — higher, 0.822
- T25C G55T — higher, 0.174
- T25C G55A — higher, 0.784
- T23G T25A — higher, 0.78
- C42G G46C — higher, 0.816
- A39G — higher, 0.839
- T25A A36T — higher, 0.752
- A37T T49G — higher, 0.791
- G38A G47C — higher, 0.163
- C28A A41G — higher, 0.779
- T30A G34C — higher, 0.781
- G34T G46C — higher, 0.778
- C33T C42A — higher, 0.842
- A41T T43C — higher, 0.773
- T25C — higher, 0.759
- C26A G46T — higher, 0.449
- T30A A37G — higher, 0.87
- T30A T45G — higher, 0.211
- A27C G47T — higher, 0.126
- C40G A48G — higher, 0.786
- A39T A57C — higher, 0.792
- G31A T35A — higher, 0.823
- T29A T49G — higher, 0.789
- C26G A41C — lower, 0.0431
- T44A G47A — higher, 0.773
- T29G G31A — higher, 0.836
- T32A T49C — higher, 0.223
- A41G T45A — higher, 0.482
- G38C T44C — higher, 0.819
- C28T A57G — higher, 0.798
- T35G G47A — higher, 0.78
- T23A T32G — higher, 0.829
- A39C T45G — higher, 0.138
- T30C A41G — higher, 0.828
- T25A A57C — higher, 0.199
- G46C A57T — higher, 0.76
- T32A T44C — higher, 0.82
- T29A A36G — higher, 0.853
- G47A A56G — higher, 0.098
- A48G A56T — higher, 0.357
- T45G A48T — higher, 0.187
- A37C A39C — higher, 0.782
- T30A G46C — higher, 0.795
- T45A G46C — lower, 0.0374
- T32G C40G — higher, 0.813
- T29G G47C — higher, 0.696
- C26G T29A — higher, 0.789
- T23C G50T — higher, 0.782
- T29C T49G — higher, 0.66
- T29C T49A — higher, 0.62
- C26A C42G — higher, 0.731
- A39T G55T — higher, 0.804
- A24C A56G — lower, 0.0302
- A27C C33A — higher, 0.827
- C26A C40T — higher, 0.814
- C26G G50C — lower, 0.0252
- C40T G46T — higher, 0.792
- T30G A57C — higher, 0.806
- G38A G55A — higher, 0.838
- G34C G47T — higher, 0.352
- C26A T44C — higher, 0.782
- A27T G50C — higher, 0.238
- G34A A37G — higher, 0.859
- A37T G47T — higher, 0.346
- T44G T45C — higher, 0.797
- T44G T45A — higher, 0.769
- A41G A57G — higher, 0.787
- C26T T44C — higher, 0.822
- T45C G47A — higher, 0.366
- C26T A27G — higher, 0.771
- A39G C40A — higher, 0.839
- T32C A37T — higher, 0.78
- T23A A24G — higher, 0.764
- T35C G38A — higher, 0.856
- T30A G47A — higher, 0.793
- T30A C42G — higher, 0.847
- A27C T30A — higher, 0.783
- T32C T49A — higher, 0.512
- T32C T49C — higher, 0.193
- T30C A56G — higher, 0.764
- G34T A41G — higher, 0.768
- C26T G34A — higher, 0.832
- T23C T45A — higher, 0.266
- T23A C33G — higher, 0.838
